Starred links: 1 amine or outer side, 2 acyl side, 3 side chain; linkers in the order of their positions; H or OH if unused. Non-standard residues stand in square brackets, D forms with d. Primed or numbered codes have the meaning given here. No end group written: not given here. *: point of attachment. FITC = O=C1OC2(c3ccc(O)cc3Oc3cc(O)ccc32)c2ccc(NC(=S)*)cc21; Trimesoyl = O=C(c1cc(C(=O)[*:2])cc(C(=O)[*:3])c1)[*:1]; F2Pmp = N[C@@H](Cc1ccc(C(F)(F)P(=O)(O)O)cc1)C(=O)O; Phe(4-F) = N[C@@H](Cc1ccc(F)cc1)C(=O)O; dPhe(4-F) = N[C@H](Cc1ccc(F)cc1)C(=O)O; 2Nal = N[C@@H](Cc1ccc2ccccc2c1)C(=O)O; Pip′ = L-homoproline (pipecolyl); AMC = Cc1cc(=O)oc2cc(N*)ccc12; Phg = N[C@H](C(=O)O)c1ccccc1; Nle = CCCC[C@H](N)C(=O)O; Abu = CC[C@H](N)C(=O)O; Dap = NC[C@H](N)C(=O)O; Butyryl = CCCC(=O)*
T1: Caspase-3, Human, recombinant protein (human, UniProt P42574 29-277, limits assumed)
T1 sequence (looked up): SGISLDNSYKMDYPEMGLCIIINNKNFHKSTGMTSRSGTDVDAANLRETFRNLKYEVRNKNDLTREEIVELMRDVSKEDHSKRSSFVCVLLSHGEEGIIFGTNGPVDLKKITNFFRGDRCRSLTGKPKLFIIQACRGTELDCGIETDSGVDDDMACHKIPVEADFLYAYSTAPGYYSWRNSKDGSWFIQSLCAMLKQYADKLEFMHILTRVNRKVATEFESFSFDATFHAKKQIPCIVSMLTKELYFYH

T2: ybbR-tagged PTP1B catalytic domain (amino acids 1-321) (UniProt P18031 1-321, Texas Red attached through CoA/Sfp to the ybbR tag (library screening only))
T2 sequence: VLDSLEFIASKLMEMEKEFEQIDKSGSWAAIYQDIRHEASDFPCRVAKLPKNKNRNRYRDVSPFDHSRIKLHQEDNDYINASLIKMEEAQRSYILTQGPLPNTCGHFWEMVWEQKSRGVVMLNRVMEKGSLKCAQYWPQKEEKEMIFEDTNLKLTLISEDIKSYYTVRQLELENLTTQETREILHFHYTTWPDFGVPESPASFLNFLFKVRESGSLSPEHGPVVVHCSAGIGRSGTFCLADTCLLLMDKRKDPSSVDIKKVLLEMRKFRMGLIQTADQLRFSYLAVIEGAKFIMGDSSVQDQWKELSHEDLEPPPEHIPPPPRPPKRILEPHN

B1: peptide 3 (Table 10, caspase 3/7 substrate) (peptide)
peptide: Ac-D[Nle][Abu]D-{AMC}
SMILES: CCCC[C@H](NC(=O)[C@H](CC(=O)O)NC(C)=O)C(=O)N[C@@H](CC)C(=O)N[C@@H](CC(=O)O)C(=O)Nc1ccc2c(C)cc(=O)oc2c1
B2: peptide 6 (Table 10, linear control) (peptide)
peptide: Butyryl-RRRR[2Nal]FD[Nle][Abu]D-{AMC}
B3: peptide 7 (Table 10, R9 conjugate) (peptide)
peptide: Ac-RRRRRRRRRD[Nle][Abu]D-{AMC}
SMILES: CCCC[C@H](NC(=O)[C@H](CC(=O)O)NC(=O)[C@H](CCCNC(=N)N)NC(=O)[C@H](CCCNC(=N)N)NC(=O)[C@H](CCCNC(=N)N)NC(=O)[C@H](CCCNC(=N)N)NC(=O)[C@H](CCCNC(=N)N)NC(=O)[C@H](CCCNC(=N)N)NC(=O)[C@H](CCCNC(=N)N)NC(=O)[C@H](CCCNC(=N)N)NC(=O)[C@H](CCCNC(=N)N)NC(C)=O)C(=O)N[C@@H](CC)C(=O)N[C@@H](CC(=O)O)C(=O)Nc1ccc2c(C)cc(=O)oc2c1
B4: Monocyclic Inhibitor 1 (peptide)
peptide: cyclo([dT][dN][dV][F2Pmp][dA]RRRR[2Nal]FQ)
SMILES: CC(C)[C@H]1NC(=O)[C@@H](CC(N)=O)NC(=O)[C@@H]([C@H](C)O)NC(=O)[C@H](CCC(N)=O)NC(=O)[C@H](Cc2ccccc2)NC(=O)[C@H](Cc2ccc3ccccc3c2)NC(=O)[C@H](CCCNC(=N)N)NC(=O)[C@H](CCCNC(=N)N)NC(=O)[C@H](CCCNC(=N)N)NC(=O)[C@H](CCCNC(=N)N)NC(=O)[C@@H](C)NC(=O)[C@H](Cc2ccc(C(F)(F)P(=O)(O)O)cc2)NC1=O
B5: Monocyclic Inhibitor 2 (peptide)
peptide: cyclo(S[dV]P[F2Pmp]HRRRR[2Nal]FQ)
B6: Monocyclic Inhibitor 3 (peptide)
peptide: cyclo(IP[Phg][F2Pmp][Nle]RRRR[2Nal]FQ)
B7: peptide 37 (Table 18) (peptide)
peptide: Trimesoyl-[dPhe(4-F)][Phe(4-F)][dT][Pip′][2Nal]RA[dF][Dap]F[2Nal]RRRR[Dap]K
modifications: linker (positions not given here) via Trimesoyl; not fully specified (bridges); printed as bicyclo[Tm-(D-4-Fpa-Fpa-D-Thr-Pip-Nal-Arg-Ala-D-Phe)-Dap-(Phe-Nal-Arg-Arg-Arg-Arg-Dap)]-Lys
B8: peptide 8 (Table 10, CAL-PDZ inhibitor), reduced linear form (peptide)
peptide: {FITC}-CRRRRFWQCTRV
modifications: also: disulfide reduced by TCEP (free thiols)
notes: As assayed in the presence of 2 mM tris(carboxylethyl)phosphine

How the values were obtained:
[1] = biological target: T1, Caspase-3, Human, recombinant protein; assay: cell-based or functional assay
[2] = biological target: T1, Caspase-3, Human, recombinant protein; assay: cell-based or functional assay; remark: listed apart in the source
[3] = biological target: T2, ybbR-tagged PTP1B catalytic domain …; assay: cell-based or functional assay
[4] = biological target: T2, ybbR-tagged PTP1B catalytic domain …; assay: PTP1B-catalyzed pNPP hydrolysis, competitive inhibition (Lineweaver-Burk and secondary plot)
Pin4 = Pin4 (human, UniProt Q9Y237 1-131, limits assumed); assay: cell-based or functional assay
CAL-PDZ domain = CAL-PDZ domain (UniProt Q9HD26 286-370); assay: fluorescence anisotropy, FITC-labeled peptide, in the presence of 2 mM tris(carboxylethyl)phosphine

Chain of Pin4 (Q9Y237 whole entry, the tested form may be a part): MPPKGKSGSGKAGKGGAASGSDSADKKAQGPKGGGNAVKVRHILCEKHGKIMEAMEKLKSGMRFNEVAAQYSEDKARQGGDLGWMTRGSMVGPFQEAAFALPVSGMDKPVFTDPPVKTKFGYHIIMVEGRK

Binder | ΔFU/min [1] | IC50 (inhibition of pNPP hydrolysis) [3] [nM] | other results
B1 | 159 ΔFU/min |  | 
B2 | 74.7 ΔFU/min |  | decrease of activity relative to peptide 3 [2]: 53%
B3 | 45.3 ΔFU/min |  | decrease of activity relative to peptide 3 [2]: 72%
B4 |  | ~100 | 
B5 |  | ~30 | Ki [4]: 54 nM
B6 |  | ~200 | 
B7 |  |  | IC50 of Pin4 isomerase activity (Pin4): ~34000 nM
B8 |  |  | Kd (CAL-PDZ domain): 489 nM

Reference: US20170355730A1 (ENTRADA THERAPEUTICS, published 2017)
